Reference: patent US9234036B2, “Modulation of activity of proneurotrophins” (H. Lundbeck A/S, priority 2006, dated 2016)

How the values were obtained:
[1] = molecular target: T1, pro-dom-BDNF (Homo sapiens, UniProt P23560); assay: SPR direct binding of sortilin peptides to immobilized pro-dom-BDNF; conditions: for direct interaction with immobilized pro-dom-BDNF: concentration series of peptide, FIG. 18; for affinity towards pro-dom-BDNF compared with pro-dom-NGF: single peptide concentration, identical amounts of immobilized pro-dom-NGF and -BDNF
T1 construct: pro-dom-BDNF (residues Ala^1-Arg^110); made in house; host or cells: E. coli BL21/DE3
T1 sequence (P23560 19-128 limits assumed): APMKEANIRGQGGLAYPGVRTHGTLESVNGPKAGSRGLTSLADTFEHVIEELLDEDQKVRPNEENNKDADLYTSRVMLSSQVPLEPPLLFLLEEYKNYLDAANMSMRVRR
Description: (§1) FIG. 18: Surface plasmon resonance binding analysis of sortilin peptides to pro-dom-NGF and -BDNF. The direct interaction between sortilin peptides (as identified by SPOT analysis) and the pro-domains of NGF and BDNF was verified by surface plasmon resonance analysis using immobilized pro-dom-NGF and -BDNF. […] The numbering in this figure refers to the mature part of Sortilin.
(§2) A biosensor chip from Biacore (CM5, cat. no. BR-1000-14) was activated using the NHS/EDC method as described by supplier followed by coating with Sortilin to a protein densitiy of 79 fmol/mm2, and used for affinity measurements of the recombinant pro-domains of NGF and BDNF. Regeneration of the flow cell after each cycle of ligand binding experiment was performed by two 10 uL pulses of regeneration buffer (10 mM glycine-HCl, pH 4.0, 500 mM NaCl, 20 mM EDTA, and 0.005% Tween-20) and a single injection of 0.001% SDS. Fitting of sensorgrams for affinity estimations was performed using the Biaevaluation version 3.1. Following similar protocols, immobilization of pro-dom-NGF or pro-dom-BDNF was also performed on a CM5 biosensor chip using the NHS/EDC coupling kit according to manufactures instructions (Biacore, Sweden), giving similar surface densitites of immobilized protein (˜300 fmol/mm2). […] This chip was subsequent used to examine the binding of 390 nM wild-type Sortilin domain in CaHBS buffer at a flow of 5 uL/min, which in the absence of any competing peptide gave a ˜300 RU signal.

[2] = molecular target: T2, pro-dom-NGF (Homo sapiens, UniProt P01138, A35V); assay: SPR direct binding of sortilin peptides to immobilized pro-dom-NGF; conditions: concentration series of peptide, FIG. 18
T2 construct: pro-dom-NGF (residues Glu^1-Arg^102); made in house; host or cells: E. coli BL21/DE3
T2 sequence (P01138 19-121 A35V): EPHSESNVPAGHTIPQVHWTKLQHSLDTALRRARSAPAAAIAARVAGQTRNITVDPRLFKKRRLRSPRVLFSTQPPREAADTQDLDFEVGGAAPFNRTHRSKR
Description: as §1
A biosensor chip from Biacore (CM5, cat. no. BR-1000-14) was activated using the NHS/EDC method as described by supplier followed by coating with Sortilin to a protein densitiy of 79 fmol/mm2, and used for affinity measurements of the recombinant pro-domains of NGF and BDNF. Regeneration of the flow cell after each cycle of ligand binding experiment was performed by two 10 uL pulses of regeneration buffer (10 mM glycine-HCl, pH 4.0, 500 mM NaCl, 20 mM EDTA, and 0.005% Tween-20) and a single injection of 0.001% SDS. Fitting of sensorgrams for affinity estimations was performed using the Biaevaluation version 3.1. Following similar protocols, immobilization of pro-dom-NGF or pro-dom-BDNF was also performed on a CM5 biosensor chip using the NHS/EDC coupling kit according to manufactures instructions (Biacore, Sweden), giving similar surface densitites of immobilized protein (˜300 fmol/mm2). […]

[3] = molecular target: T3, Sortilin binding to immobilized pro-dom-BDNF (Homo sapiens, UniProt P23560); assay: SPR competition: Sortilin binding to immobilized pro-dom-BDNF in presence of sortilin peptide
T3 construct: pro-dom-BDNF (residues Ala^1-Arg^110); made in house; host or cells: pro-dom-BDNF: E. coli BL21/DE3; Sortilin: EBNA293 cells
T3 sequence (P23560 19-128 limits assumed): T1 sequence (P23560 19-128 limits assumed)
Experimental: FIG. 19: Surface plasmon resonance analysis of competition studies by the sortilin peptides.
as §2

[4] = molecular target: T4, p75-IgG-Fc chimeric protein (Homo sapiens, UniProt P08138); assay: Surface plasmon resonance (BIAcore) binding to immobilized p75-IgG-Fc; conditions: 91.5 fmol/mm^2 immobilized p75-IgG-Fc; calculated from on and off rates
T4 construct: purchased R&D systems (Oxon, UK)
Experimental: (§3) FIG. 2: Characterization of NGF binding to p75, TrkA, and Sortilin as measured by surface plasmon resonance analysis (BIAcore). Binding of 50-500 nM NGF was measured to 91.5 fmol/mm^2 immobilized p75-IgG-Fc chimeric protein (upper panel), to 66 fmol/mm^2 immobilized TrkA-IgG-Fc (middle panel), and to 51 fmol/mm^2 purified Sortilin extracellular domain (lower panel). The on and off rates—100 to 600 seconds and 600 to 1000 seconds, respectively—were recorded and the Kd values for NGF binding were calculated to ˜1 nM for p75, ˜2 nM for TrkA, and ˜8 nM for Sortilin. […]
(§4) FIG. 3: Characterization of proNGF binding to p75, TrkA, and Sortilin as measured by surface plasmon resonance analysis (Biacore). Binding of 25-500 nM proNGF was measured to 91.5 fmol/mm^2 immobilized p75-IgG-Fc chimeric protein (upper panel), to 66 fmol/mm^2 immobilized TrkA-IgG-Fc (middle panel), and to 51 fmol/mm^2 purified Sortilin extracellular domain (lower panel). […]
(§5) FIG. 4: Characterization of binding of the proNGF propeptide to p75, TrkA, and Sortilin as measured by surface plasmon resonance analysis (Biacore). Binding of 25-500 nM propeptide was measured to 91.5 fmol/mm^2 immobilized p75-IgG-Fc chimeric protein (upper panel), to 66 fmol/mm^2 immobilized TrkA-IgG-Fc (middle panel), and to 51 fmol/mm^2 purified Sortilin extracellular domain (lower panel). […]

[5] = molecular target: T5, TrkA-IgG-Fc (Homo sapiens, UniProt P04629); assay: Surface plasmon resonance (BIAcore) binding to immobilized TrkA-IgG-Fc; conditions: 66 fmol/mm^2 immobilized TrkA-IgG-Fc; calculated from on and off rates
T5 construct: purchased R&D systems (Oxon, UK)
Experimental: as §3, §4, §5

[6] = molecular target: T6, Sortilin extracellular domain (Homo sapiens, UniProt Q99523); assay: Surface plasmon resonance (BIAcore) binding to immobilized purified Sortilin extracellular domain; conditions: 51 fmol/mm^2 purified Sortilin extracellular domain; calculated from on and off rates
T6 construct: 51 fmol/mm^2 purified Sortilin extracellular domain; made in house; host or cells: stably transfected CHO cells
T6 sequence (Q99523 78-755 limits assumed): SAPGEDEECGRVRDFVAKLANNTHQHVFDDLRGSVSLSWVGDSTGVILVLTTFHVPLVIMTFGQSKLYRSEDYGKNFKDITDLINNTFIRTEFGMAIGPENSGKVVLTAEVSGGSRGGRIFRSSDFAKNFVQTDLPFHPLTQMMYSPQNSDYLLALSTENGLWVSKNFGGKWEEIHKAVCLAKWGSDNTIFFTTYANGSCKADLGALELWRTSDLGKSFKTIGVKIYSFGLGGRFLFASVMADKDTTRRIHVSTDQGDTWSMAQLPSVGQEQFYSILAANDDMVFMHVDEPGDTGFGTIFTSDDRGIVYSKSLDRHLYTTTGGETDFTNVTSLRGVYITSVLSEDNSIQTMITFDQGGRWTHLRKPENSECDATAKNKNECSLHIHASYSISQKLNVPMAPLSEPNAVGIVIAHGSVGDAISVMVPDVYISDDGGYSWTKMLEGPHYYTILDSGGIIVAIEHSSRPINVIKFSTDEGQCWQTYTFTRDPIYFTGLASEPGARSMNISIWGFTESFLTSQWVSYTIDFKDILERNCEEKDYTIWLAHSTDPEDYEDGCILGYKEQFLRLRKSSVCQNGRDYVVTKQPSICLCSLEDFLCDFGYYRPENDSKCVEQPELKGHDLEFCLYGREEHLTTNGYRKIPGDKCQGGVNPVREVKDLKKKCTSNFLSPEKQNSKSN
Experimental: as §3, §4, §5

[7] = molecular target: T7, proNGF binding to immobilized Sortilin (Homo sapiens, UniProt Q99523); assay: Inhibition of proNGF binding to immobilized Sortilin (Biacore); conditions: 5 μM inhibitor prebound, then coinjection; 51 fmol/mm^2 Sortilin (FIG. 6)
T7 construct: 51 fmol/mm^2 purified Sortilin extracellular domain; made in house; host or cells: Sortilin: stably transfected CHO cells; proNGF: E. coli
T7 sequence (Q99523 78-755 limits assumed): T6 sequence (Q99523 78-755 limits assumed)

T4 sequence (P08138 with tags, fused parts or gaps limits assumed): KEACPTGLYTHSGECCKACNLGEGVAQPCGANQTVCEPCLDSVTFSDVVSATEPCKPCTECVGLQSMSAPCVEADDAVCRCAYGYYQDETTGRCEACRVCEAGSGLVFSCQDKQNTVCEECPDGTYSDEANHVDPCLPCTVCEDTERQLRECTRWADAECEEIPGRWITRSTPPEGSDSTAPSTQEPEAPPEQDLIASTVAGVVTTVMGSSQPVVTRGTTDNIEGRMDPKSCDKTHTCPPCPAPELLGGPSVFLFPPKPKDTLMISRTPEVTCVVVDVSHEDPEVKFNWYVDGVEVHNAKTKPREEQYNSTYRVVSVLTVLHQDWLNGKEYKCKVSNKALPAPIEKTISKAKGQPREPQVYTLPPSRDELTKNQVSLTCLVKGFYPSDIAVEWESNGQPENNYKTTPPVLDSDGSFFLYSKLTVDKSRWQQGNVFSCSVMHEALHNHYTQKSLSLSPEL
T5 sequence (P04629 34-407 isoform P04629-2 limits assumed): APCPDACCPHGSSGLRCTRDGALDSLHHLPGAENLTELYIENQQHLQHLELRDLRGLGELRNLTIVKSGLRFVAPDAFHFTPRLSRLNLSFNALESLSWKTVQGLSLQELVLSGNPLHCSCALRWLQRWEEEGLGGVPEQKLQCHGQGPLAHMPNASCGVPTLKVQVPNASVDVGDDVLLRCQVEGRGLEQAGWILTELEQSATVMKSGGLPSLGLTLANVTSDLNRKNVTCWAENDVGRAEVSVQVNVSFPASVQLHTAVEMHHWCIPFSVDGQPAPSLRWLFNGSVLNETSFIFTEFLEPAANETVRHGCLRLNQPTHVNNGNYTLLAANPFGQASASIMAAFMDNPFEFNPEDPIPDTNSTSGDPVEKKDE

## RIFRSSDFAKNF (listed as Homo Sapiens)
[1]
  direct interaction with immobilized pro-dom-BDNF: direct binding
  affinity towards pro-dom-BDNF compared with pro-dom-NGF: higher affinity of the peptides towards BDNF than NGF
[2]
  direct interaction with immobilized pro-dom-NGF: direct binding

## RSSDFAKNFVQTDLPF (listed as Homo Sapiens)
[3]; 300 uM peptide, 390 nM wild-type Sortilin domain, CaHBS buffer
  inhibition of Sortilin binding to immobilized pro-dom-BDNF: ~66%
[3]; FIG. 19, + peptide
  competition of sortilin binding to immobilized pro-dom-BDNF: significantly inhibited
[1]
  direct interaction with immobilized pro-dom-BDNF: direct binding
  affinity towards pro-dom-BDNF compared with pro-dom-NGF: higher affinity of the peptides towards BDNF than NGF
[2]
  direct interaction with immobilized pro-dom-NGF: direct binding

## proNGF: Human recombinant proNGF produced and purified in E. coli
[4]
  Kd: ~0.012 µM

B1: proNGF propeptide: human NGF-propeptide expressed in E. coli (protein)
chain: T2 sequence (P01138 19-121 A35V)
[4]
  Kd for binding to p75: no detectable binding
[5]
  Kd for binding to TrkA: no detectable binding
[6]
  Kd: ~0.008 µM
[7]
  inhibition of binding of 200 nM proNGF to immobilized Sortilin: ~85%
